From patent US20120040915A1 (MAYO FOUNDATION FOR MEDICAL EDUCATION AND RESEARCH, published 2012)
Ends that are not written are not given here. * marks the point of attachment. Biotin = O=C1N[C@H]2[C@H](CS[C@H]2CCCCC(=O)*)N1

T1: PDZ domain of GIPC/synectin displayed on T7 phage (UniProt O14908 133-213, limits assumed)
T1 construct: domain: PDZ domain; also called GIPC/Synectin-PDZ T7 phage; GIPC-PDZ
T1 sequence (looked up): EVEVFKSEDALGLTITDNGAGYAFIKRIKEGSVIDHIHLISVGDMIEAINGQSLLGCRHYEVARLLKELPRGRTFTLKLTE


Target: T1, PDZ domain of GIPC/synectin displayed …
Assay: phage ELISA, biotinylated peptide on Neutravidin plate, GIPC-PDZ T7 phage
Experimental: Neutravidin plates (Pierce) were coated in duplicate with 100 μL of 10 μg/mL solutions of N-terminal biotinylated peptides ([…] (SEQ ID NO: 3) (from GAIP), KKETEV (SEQ ID NO: 12) and KKETAV (SEQ ID NO: 13) (two sequences that bind PDZ3 of PSD-95 (21), and allowed to incubate 1-2 h at 37° C. (or overnight at 4° C.) with mild shaking. The unbound peptides were washed away three times with TBS (0.5% Tween-20)-TBST buffer. Blocking buffer was prepared by diluting BSA […] in TBS stock two-fold in dH2O (for a 5% BSA final concentration) and free biotin (1 mM). Alternatively, SuperBlock in PBS buffer (Pierce) with free biotin (1 mM) was used. The blocking buffer was added to each well and allowed to incubate 30-60 min at 37° C. with mild shaking. The blocking buffer was washed away with TBST by inverting the plate and tapping off the excess with each of the 4-5 washes. The GIPC/Synectin-PDZ T7 phage to be screened with the biotinylated peptides were prepared by adding phage stock (1 mL, 20 μL) derived from one of the eight plaques (discussed above) to freshly harvested BLT5403 E. coli at OD ˜1. Once lysis was observed, the cell debris was spun down and phage lysate was used in a plaque assay (as discussed above) to determine the titer (phage titer added to wells 5×10⁹ pfu). […] The substrate was added to each well, and the development was measured at 405 nm after 30 min, 1 h and 2 h.

Binder | binding result
Biotin-KKETEV (Comparison peptide in the phage ELISA) [N-terminal biotinylated peptide KKETEV (SEQ ID NO: 12)] | no binding
Biotin-KKETAV (Comparison peptide in the phage ELISA) [N-terminal biotinylated peptide KKETAV (SEQ ID NO: 13)] | no binding
